From patent US20240108688A1, “Inhibitors of the tissue factor-protease activated receptor 2 (TF-PAR2) signaling pathway for use in the treatment or prevention of heart failure (HF) and associated or resulting diseases” (priority 2020, published 2024)

B1: NAPc2: single-chain, non-glycosylated 85 amino acid protein, 9732 Da; blocks TF signaling and coagulation via inhibited TF-FVIIa-FX(a) complex (protein, listed as Ancylostoma caninum)
chain: KATMQCGENEKYDSCGSKECDKKCKYDGVEEEDDEEPNVPCLVRVCHQDCVCEEGFYRNKDDKCVSAEDCELDNMDFIYPGTRN

Columns and labels:
[1] = system: permanent LAD ligation mouse model of MI
Method: B), High-frequency ultrasound echocardiography obtained in parasternal long axis (PLAX) with measurement of left ventricular ejection fraction (LVEF, %) and left ventricular end diastolic volume (LVEDV, μl) on day 7 after operation. […] Ordinary one-way ANOVA, Sidak's multiple comparison test, n=4-7 animals per group.
C), Experimental design: Mice were injected with NAPc2 (1 mg/kg/d) once daily by i.p. injection from day 1 through day 7. D), High-frequency echocardiography obtained in parasternal long axis (PLAX) with measurement of LVEF, LVEDV on day 7 after LAD ligation. E), Representative blots for protein expression analysis of pERK1/2, NOX2, TGF-β1 and α-SMA in infarcted myocardium obtained from vehicle or NAPc2 treated mice. F-H, Mice were injected with NAPc2 (1 mg/kg/d) and/or vehicle (1 mg/kg/d) once daily by i.p. injection from day 1 through day 7 followed by longitudinal analysis. […] Echocardiographic studies over 4 weeks from day 7 for LVEF (%), LVEDV (p1) in PLAX M-mode; two-way ANOVA, Bonferroni's multiple comparisons test, n=6-12 animals per each group (G). Kaplan-Meier survival analysis of LAD ligated versus sham operated NAPc2 876 and vehicle treated mice after 4 weeks. Log-rank (Mantel-Cox) test, n=7-15 animals per group (H).

human monocytes = assay: Isolated human monocytes exposed to hypoxia (OGD) plus inflammatory cytokine cocktail, western blot; type: cell-based; conditions: NAPc2 200 ng/ml; cytokine cocktail 20 ng/ml plus hypoxia
Excerpt: Representative blots and quantification. […] Representative images and quantification of replicates.
Monocytes isolation and in vitro culture: Bone marrow derived cell suspensions were isolated by flushing femurs and tibias of 8-12 weeks old mice. Cell aggregates were removed by gentle pipetting and the cell lysates were passed through a 70 μm nylon strainer to remove the cell debris. Furthermore, to enrich monocytes population, mouse monocyte isolation Kit ([…] Technologies Inc., Vancouver, BC, Canada) was used according to standard protocols provided by the manufacturer. To mimic in vivo ischemic conditions, a protocol of oxygen-glucose-deprivation (OGD) is applied along with the cytokine cocktail mix (IL-6, TNF-α and MCP-1) at concentrations of 20 ng/ml for 4 hours followed by the protein expression analysis of pERK1/2, NOX2 and TGF-β1 on isolated monocytes. […] For blocking TF-FVIIa signaling on human monocytes, isolated monocytes from healthy individuals were treated with NAPc2 in the presence of OGD along with the cytokine cocktail mix followed by the protein expression analysis of pERK1/2, NOX2 and TGF-β1.

[2] = human, in vivo; cited from earlier work
[3] = prevention of venous thromboembolism, total knee replacement patients (ref 27); cited from earlier work
[4] = NAPc2 1 mg/kg/d i.p. day 1-7, western blot
[5] = NAPc2 1 mg/kg/d i.p. starting 1 day after MI, 7 d after LAD ligation

| Molecule | cardiac function in sham-operated mice ([1]; trametinib 1 mg/kg/d oral, sham surgery) | ERK1/2 phosphorylation (human monocytes) | NOX2 expression (human monocytes) | TGF-β1 activation (human monocytes) | safety [2] | cardiac function (LVEF, LVEDV by echocardiography) ([1]; NAPc2 1 mg/kg/d i.p. day 1-7, day 7 after LAD ligation) | cardiac infiltration of CD11b+ myeloid cells ([1]; NAPc2 1 mg/kg/d i.p. day 1-7, flow cytometry of infarcted myocardium) | ERK1/2 phosphorylation in the infarcted heart [1, 4] | NOX2 expression in the infarcted heart [1, 4] | TGF-β1 activation in the infarcted heart [1, 4] | up-regulation of the downstream target α-SMA in the infarcted heart [1, 4] | levels of NOX2 in circulating myeloid cells (PBMCs) [1, 5] | levels of active TGF-β1 in circulating myeloid cells (PBMCs) [1, 5] | cardiac fibrosis (fibrotic areas normalized to surface area) ([1]; short term NAPc2 1 mg/kg/d i.p. from 1 d until 7 d post MI, longitudinal analysis, compared to vehicle) | survival (Kaplan-Meier, 4 weeks) ([1]; short term NAPc2 1 mg/kg/d i.p. from 1 d until 7 d post MI, LAD ligated mice) | cardiac function in chronic MI (LVEF, LVEDV over 4 weeks) ([1]; short term NAPc2 1 mg/kg/d i.p. from 1 d until 7 d post MI, compared to vehicle) | antithrombotic effect [3] |
| --- | --- | --- | --- | --- | --- | --- | --- | --- | --- | --- | --- | --- | --- | --- | --- | --- | --- |
| CC(=O)Nc1cccc(-n2c(=O)n(C3CC3)c(=O)c3c(Nc4ccc(I)cc4F)n(C)c(=O)c(C)c32)c1 [trametinib, reference compound] | no significant effects |  |  |  |  |  |  |  |  |  |  |  |  |  |  |  |  |
| B1 |  | reduced | suppressed | suppressed | documented safety | improved cardiac function | attenuated | diminished | diminished | diminished | diminished | attenuated | attenuated | significantly reduced | improved survival | improved cardiac function | has been demonstrated |
